Assay results published in the RNAGym collection of RNA variant scans (doi:10.1093/molbev/msab373).

B1: Azoarcus group I ribozyme (parent)
chain: GUGCCUUGCGCCGGGAAACCACGCAAGGGAUGGUGUCAAAUUCGGCGAAACCUAAGCGCCCGCCCGGGCGUAUGGCAACGCCGAGCCAAGCUUCGGCGCCUGCGCCGAUGAAGGUGUAGAGACUAGACGGCACCCACCUAAGGCAAACGCUAUGGUGAAGGCAUAGUCCAGGGAGUGGCGAAAGUCACACAAACCGG

Variants of: B1
Assay: reverse-splicing fitness (ratio to wild type); higher = more active; in vitro selection; Mg2+ level not given
Summary of the method: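 An in vitro group I ribozyme library with randomized positions was T7-transcribed and gel-purified. In triplicate, 10 pmol RNA in EPPS pH 7.5 was reacted with 50 pmoles of a 30-nt RNA substrate for 1 h at 37 °C across several added MgCl2 levels (1–48 mM), then stopped with EDTA. Products were reverse transcribed from a substrate-complementary primer, PCR-amplified and sequenced (HiSeq 4000). Fitness is a variant's read proportion after selection over that before, normalised to wild type.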

Going from A120U A145G C150A C169A to A120U A145G C150A C169U, the reverse-splicing fitness rises from 0.00622 to 0.0612.

Compared with A120U A145G C150A C169G, A145G C169U is higher in reverse-splicing fitness: 0.0459 for the first, 0.369 for the second.

Compared with A145G C169G, A145G C169A is lower in reverse-splicing fitness: 0.302 for the first, 0.172 for the second.

Compared with A120U A145G C150G U176A, A120U A145G C150G U176C is higher in reverse-splicing fitness: 0.084 for the first, 0.146 for the second.

First: A120U A145G C150G U176G
Second: A145G C150G U176A
The reverse-splicing fitness of the first is lower: 0.013 for the first, 0.256 for the second.

First: A145G C150G U176C
Second: A145G C150G U176G
The reverse-splicing fitness of the first is higher: 0.371 for the first, 0.0658 for the second.

First: A120U A145U C169A U176G
Second: A120U A145U C169A U176A
The reverse-splicing fitness of the first is lower: 0.00158 for the first, 0.00339 for the second.

First: A120U A145U C169A U176C
Second: A145G C150A C169A U176A
The reverse-splicing fitness of the first is lower: 0.00507 for the first, 0.0203 for the second.

Compared with A145G C150A C169A U176C, A145G C150A C169A U176G is lower in reverse-splicing fitness: 0.031 for the first, 0.00608 for the second.

First: A120U C150G C169U U176G
Second: A120U C150G C169U U176A
The reverse-splicing fitness of the first is lower: 0.00276 for the first, 0.00472 for the second.

Going from A120U C150G C169U U176C to A120U A145G U176A, the reverse-splicing fitness rises from 0.0154 to 0.704.

Going from A120U A145G U176C to A120U A145G U176G, the reverse-splicing fitness falls from 0.685 to 0.342.

First: A120U A145G C150G C169A
Second: A120U A145G C150G C169G
The reverse-splicing fitness of the first is lower: 0.00998 for the first, 0.0353 for the second.

First: A120U A145G C150G C169U
Second: A120U A145U C150G C169G U176A
The reverse-splicing fitness of the first is higher: 0.0537 for the first, 0.00507 for the second.

Compared with A120U A145U C150G C169G U176G, A120U A145U C150G C169G U176C is higher in reverse-splicing fitness: 0.00208 for the first, 0.00304 for the second.

Compared with A145C C150G C169G U176G, A145C C150G C169G U176A is higher in reverse-splicing fitness: 0.00537 for the first, 0.0135 for the second.

First: A145C C150G C169G U176C
Second: A120U C150U C169U U176C
The reverse-splicing fitness of the first is lower: 0.00959 for the first, 0.083 for the second.

First: A120U C150U C169U U176A
Second: A120U C150U C169U U176G
The reverse-splicing fitness of the first is higher: 0.0605 for the first, 0.00872 for the second.

First: A120U A145U C150A C169G U176G
Second: A120U A145U C150A C169G U176A
The reverse-splicing fitness of the first is lower: 0.00216 for the first, 0.00797 for the second.

Compared with A120U A145U C150A C169G U176C, A120U A145U C169U U176C is higher in reverse-splicing fitness: 0.0122 for the first, 0.133 for the second.

First: A120U A145U C169U U176G
Second: A120U A145U C169U U176A
The reverse-splicing fitness of the first is lower: 0.0134 for the first, 0.0858 for the second.

Compared with A120U A145U C150U C169G U176G, A120U A145U C150U C169G U176C is higher in reverse-splicing fitness: 0.00311 for the first, 0.0637 for the second.

First: A120U A145U C150U C169G U176A
Second: A145U
The reverse-splicing fitness of the first is lower: 0.0285 for the first, 0.946 for the second.

First: A145C
Second: A145G
The reverse-splicing fitness of the first is lower: 0.95 for the first, 0.958 for the second.

First: A145U C150A C169G U176C
Second: A145U C150A C169G U176A
The reverse-splicing fitness of the first is higher: 0.0285 for the first, 0.0176 for the second.

Going from A145U C150A C169G U176G to A145G C150A U176A, the reverse-splicing fitness rises from 0.00588 to 0.472.

Compared with A145G C150A U176C, A145G C150A U176G is lower in reverse-splicing fitness: 0.464 for the first, 0.184 for the second.

Compared with A145C C150G C169A U176G, A145C C150G C169A U176A is higher in reverse-splicing fitness: 0.00491 for the first, 0.00984 for the second.

First: A145C C150G C169A U176C
Second: A120U C169U
The reverse-splicing fitness of the first is lower: 0.0118 for the first, 0.257 for the second.

Compared with A120U C169G, A120U C169A is lower in reverse-splicing fitness: 0.262 for the first, 0.0174 for the second.

Compared with A145G C150U C169U U176A, A145G C150U C169U U176G is lower in reverse-splicing fitness: 0.113 for the first, 0.00803 for the second.

First: A145G C150U C169U U176C
Second: A120U A145G C150A C169U U176C
The reverse-splicing fitness of the first is higher: 0.149 for the first, 0.032 for the second.

Going from A120U A145G C150A C169U U176A to A120U A145G C150A C169U U176G, the reverse-splicing fitness falls from 0.0235 to 0.00424.

Compared with A120U C150A U176A, A120U C150A U176G is lower in reverse-splicing fitness: 0.178 for the first, 0.0831 for the second.

Compared with A120U C150A U176C, A120U A145U C150A C169A is lower in reverse-splicing fitness: 0.172 for the first, 0.00309 for the second.

Compared with A120U A145U C150A C169U, A120U A145U C150A C169G is lower in reverse-splicing fitness: 0.0358 for the first, 0.0282 for the second.

Going from A145U C150A U176A to A145U C150A U176C, the reverse-splicing fitness falls from 0.4 to 0.363.

Compared with A145U C150A U176G, A145C C150G C169U is lower in reverse-splicing fitness: 0.177 for the first, 0.0739 for the second.

Compared with A145C C150G C169A, A145C C150G C169G is higher in reverse-splicing fitness: 0.0221 for the first, 0.0445 for the second.

Compared with A120U A145U C150A C169U U176G, A120U A145U C150A C169U U176C is higher in reverse-splicing fitness: 0.00399 for the first, 0.015 for the second.

Compared with A120U A145U C150A C169U U176A, A145C C150G U176G is higher in reverse-splicing fitness: 0.0134 for the first, 0.114 for the second.

For A145C C150G U176C, the reverse-splicing fitness was 0.388.
